The target of data set [1] is p50-NTD (mouse, UniProt P25799 39-245). As to the kind of experiment: NMR.
For data set [2], the target named is p50-RHR homodimer (mouse, UniProt P25799 39-363). As to the kind of experiment: NMR.
p50-RHR homodimer, sequence (P25799 39-363): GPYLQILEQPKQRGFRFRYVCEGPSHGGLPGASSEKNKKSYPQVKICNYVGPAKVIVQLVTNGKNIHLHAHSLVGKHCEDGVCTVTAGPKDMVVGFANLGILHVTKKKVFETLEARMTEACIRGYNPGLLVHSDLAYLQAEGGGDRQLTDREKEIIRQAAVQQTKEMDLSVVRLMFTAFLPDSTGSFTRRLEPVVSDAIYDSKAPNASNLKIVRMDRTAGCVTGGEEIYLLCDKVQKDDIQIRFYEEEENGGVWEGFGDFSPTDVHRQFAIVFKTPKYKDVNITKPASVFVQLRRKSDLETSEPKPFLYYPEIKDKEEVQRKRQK

p50-NTD, sequence (P25799 39-245): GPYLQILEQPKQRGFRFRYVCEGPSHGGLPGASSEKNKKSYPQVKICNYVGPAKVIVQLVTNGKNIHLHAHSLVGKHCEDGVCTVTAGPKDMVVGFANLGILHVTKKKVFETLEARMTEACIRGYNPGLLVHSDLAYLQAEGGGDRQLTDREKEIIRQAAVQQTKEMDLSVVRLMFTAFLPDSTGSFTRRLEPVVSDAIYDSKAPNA

B1: half-kB (18-mer) (dsDNA)
DNA 1: TTCGGGAAATAGAAACTC
DNA 2: GAGTTTCTATTTCCCGAA
Turning to B1, the binding result in data set [1] was “binds”.

B2: full-kB (14-mer) (dsDNA)
DNA 1: TCGGGAATTCCCGA
DNA 2: TCGGGAATTCCCGA
On to B2, for which the binding result in data set [2] and in data set [1] was “binds” in each case.

B3: half-kBL (21-mer) (dsDNA)
DNA 1: CTTCGGGAAATAGAAACTCTC
DNA 2: GAGAGTTTCTATTTCCCGAAG
As for B3, the binding result in data set [1] is recorded as “binds”.

The values above are taken from paper PMC8154232.
